From patent US20260373285 (published 2026)
Substitutions are numbered along the chain they refer to. Like-named read-outs stand apart in the source and are kept apart here. Each block holds one binder with its values, some of them ahead of it.

Columns and labels:
hPD-L1(ECD)-His [1] = biological target: T1, hPD-L1(ECD)-His (human, UniProt Q9NZQ7); test: SPR supernatant
hPD-L1(ECD)-His [2] = biological target: T1, hPD-L1(ECD)-His; test: SPR
hPD-L1(ECD)-His [3] = biological target: T1, hPD-L1(ECD)-His; test: SPR; remark: listed apart in the source
hPD-L1(ECD)-His [4] = biological target: T1, hPD-L1(ECD)-His; test: SPR; remark: listed apart in the source
human Trop-2 (His) [5] = biological target: T2, human Trop-2 (His) (human, UniProt P09758); test: SPR
T2 chain: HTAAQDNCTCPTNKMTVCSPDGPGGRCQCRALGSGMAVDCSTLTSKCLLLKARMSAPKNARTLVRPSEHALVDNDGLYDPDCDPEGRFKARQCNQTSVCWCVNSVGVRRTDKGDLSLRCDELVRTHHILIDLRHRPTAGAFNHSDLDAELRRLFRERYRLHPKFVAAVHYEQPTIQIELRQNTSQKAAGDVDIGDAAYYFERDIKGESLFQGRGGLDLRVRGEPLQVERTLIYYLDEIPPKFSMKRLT

human Trop-2 (His) [6] = biological target: T2, human Trop-2 (His); test: SPR
[7] = biological target: T3, human Trop-2 on MDA-MB-468 cells (human, UniProt P09758); test: FACS
T3 chain: T2 chain

human Trop-2 (His) [8] = biological target: T2, human Trop-2 (His); test: ELISA
human Trop-2 (His) [9] = biological target: T2, human Trop-2 (His); test: SPR
human Trop-2 (His) [10] = biological target: T2, human Trop-2 (His); test: SPR
human Trop-2 (His) [11] = biological target: T2, human Trop-2 (His); test: SPR

T1 sequence (Q9NZQ7 19-238): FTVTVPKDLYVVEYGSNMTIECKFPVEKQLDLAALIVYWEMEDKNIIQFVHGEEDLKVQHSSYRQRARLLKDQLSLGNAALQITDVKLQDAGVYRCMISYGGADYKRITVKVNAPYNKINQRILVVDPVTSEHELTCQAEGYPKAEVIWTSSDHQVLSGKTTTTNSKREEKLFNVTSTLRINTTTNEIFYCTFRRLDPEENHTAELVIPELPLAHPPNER

- Kd (hPD-L1(ECD)-His [1]): 0.379 nM
- Kd (hPD-L1(ECD)-His [2]): 0.275 nM
B1: PD-L1-1.168.15-xIgG1K (antibody, V domains shown)
VH: EVQLQQSGAELVKPGASVKLSCTVSGFNIEDTYIYWVKQRPEQGLEWIGWIDPANYNTKYDPRFQDKATVTVDTSSNTAYMHLSSLTSEDTAVYYCARGLRLLMDYWGQGTSVTVSS
VL: DIVMTQSQKFMSSSVGDRVSITCKASQNVHTSLAWYQQRPGQSPKALIYLASNRHTGVPDRFTGSGSGTDFTLTISNVQSEDLADYFCLQHWNYPLTFGAGTKLELRR

- Kd (hPD-L1(ECD)-His [3]): 0.824 nM
- Kd (hPD-L1(ECD)-His [4]): 0.824 nM
B2: ALGA105S PD-L1 arm (antibody, V domains shown)
VH: EVQLVQSGAEVKKPGATVKISCKVSGFNIEDTYIYWVQQAPGKGLEWMGWIDPANYNTKYDPRFQDRVTITVDTSTDTAYMELSSLRSEDTAVYYCARGLRLLMDYWGQGTTVTVSS
VL: DIQLTQSPSFLSASVGDRVTITCKASQNVHTSLAWYQQKPGKSPKLLIYLASNRHTGVPSRFSGSGSGTEFTLTISSLQPEDFATYYCLQHWNYPLTFGQGTKLEIKR

- Kd (hPD-L1(ECD)-His [4]): 0.647 nM
- Kd (hPD-L1(ECD)-His [1]): 0.775 nM
- Kd (hPD-L1(ECD)-His [2]): 0.613 nM
B3: PD-L1-1.168.15-z4-uIgG1K (antibody, V domains shown)
VH: B2 VH
VL: B2 VL

- Kd (hPD-L1(ECD)-His [3]): 0.652 nM
B4: ALGA105X-ADC PD-L1 arm (antibody, V domains shown)
VH: B2 VH
VL: B2 VL
modifications: exatecan drug-linker conjugate; full fusion SEQ69:SEQ70

- Kd (hPD-L1(ECD)-His [3]): 0.764 nM
B5: ALGA105S-ADC PD-L1 arm (antibody, V domains shown)
VH: B2 VH
VL: B2 VL
modifications: exatecan drug-linker conjugate; full fusion SEQ67:SEQ68

- Kd (hPD-L1(ECD)-His [1]): 0.837 nM
- Kd (hPD-L1(ECD)-His [2]): 0.876 nM
B6: PD-L1-1.168.15-z3-uIgG1K (antibody, V domains shown)
VH: B2 VH
VL: B2 VL with S43A

- Kd (hPD-L1(ECD)-His [3]): 0.822 nM
- Kd (hPD-L1(ECD)-His [4]): 0.822 nM
B7: ALGA105X PD-L1 arm (antibody, V domains shown)
VH: B2 VH
VL: B2 VL

- Kd (human Trop-2 (His) [5]): 22.5 nM
- Kd (human Trop-2 (His) [6]): 23.5 nM
- EC50 [7]: 0.827 µg/mL
- EC50 (human Trop-2 (His) [8]): 0.0507 µg/mL
- Kd (human Trop-2 (His) [9]): 28.3 nM
- Kd (human Trop-2 (His) [10]): 15.4 nM
B8: Datopotamab (ALGA106B) (antibody, V domains shown)
VH: QVQLVQSGAEVKKPGASVKVSCKASGYTFTTAGMQWVRQAPGQGLEWMGWINTHSGVPKYAEDFKGRVTISADTSTSTAYLQLSSLKSEDTAVYYCARSGFGSSYWYFDVWGQGTLVTVSS
VL: DIQMTQSPSSLSASVGDRVTITCKASQDVSTAVAWYQQKPGKAPKLLIYSASYRYTGVPSRFSGSGSGTDFTLTISSLQPEDFAVYYCQQHYITPLTFGQGTKLEIKR

- Kd (human Trop-2 (His) [6]): 0.859 nM
- EC50 [7]: 0.151 µg/mL
- EC50 (human Trop-2 (His) [8]): 0.027 µg/mL
- Kd (human Trop-2 (His) [10]): 0.859 nM
B9: Sacituzumab (ALGA106A) (antibody, V domains shown)
VH: QVQLQQSGSELKKPGASVKVSCKASGYTFTNYGMNWVKQAPGQGLKWMGWINTYTGEPTYTDDFKGRFAFSLDTSVSTAYLQISSLKADDTAVYFCARGGFGSSYWYFDVWGQGSLVTVSS
VL: B8 VL with M4L, T20S, T31I, S60D, Q100A, L104V

- Kd (human Trop-2 (His) [6]): 20.1 nM
- Kd (human Trop-2 (His) [10]): 20.1 nM
B10: Trop-2-B-YC-82 (antibody, V domains shown)
VH: EVQVVESGGGLVQPGGSLRLSCATSGYIFSNSGMGWYRQAPGKQRELVAAISSGGTTHYADSVKGRFTISRDNAKSTVYLQMNSLKPEDTAVYYCNGDRYYSGTDVFGSWGQGTQVTVSS

- Kd (human Trop-2 (His) [5]): 99.4 nM
B11: ALGA105M Trop-2 arm (antibody, V domains shown)
V domain 1: B10 VH with A74S, S76N, K86R, P87A, Q115L
V domain 2: B10 VH with A74S, S76N, K86R, P87A, Q115L

- Kd (human Trop-2 (His) [10]): 76.5 nM
B12: Trop-2-YC-82hz-5 (antibody, V domains shown)
VH: EVQVVESGGGLVQPGGSLRLSCAASGYIFSNSGMGWYRQAPGQGLELVAAISSGGTTHYAQSVKGRFTISRDNSKNTLYLQMNSLRAEDTAVYYCNGDRYYSGTDVFGSWGQGTLVTVSS

- Kd (hPD-L1(ECD)-His [1]): 0.863 nM
- Kd (hPD-L1(ECD)-His [2]): 0.62 nM
B13: PD-L1-1.168.15-z11-uIgG1K (antibody)
chain 1: not shown
chain 2: DIQMTQSPSFLSASVGDRVTITCKASQNVHTSLAWYQQKPGKSPKALIYLASNRHTGVPSRFSGSGSGTEFTLTISSLQPEDFATYFCLQHWNYPLTFGQGTKLEIKRTVAAPSVFIFPPSDEQLKSGTASVVCLLNNFYPREAKVQWKVDNALQSGNSQESVTEQDSKDSTYSLSSTLTLSKADYEKHKVYACEVTHQGLSSPVTKSFNRGEC

- EC50 [7]: 0.279 µg/mL
- Kd (human Trop-2 (His) [9]): 68.9 nM
B14: Trop-2-A-258hz5 (antibody, V domains shown)
VH: QVQLVESGGGLVQPGGSLRLSCAASDRTFSEYNADWFRQAPGKEREFVAAITWSGKNTRYADSVKGRFTVSRDNSKNTVYLQMNSLRPADTAVYYCATDRWWAAGNWDGVDYWGQGTLVTVSS

- Kd (human Trop-2 (His) [5]): 2.76 nM
B15: ALGA105T Trop-2 arm (antibody, V domains shown)
V domain 1: B14 VH with E6Q, P88A, A89E
V domain 2: B10 VH with A74S, S76N, K86R, P87A, Q115L

- Kd (human Trop-2 (His) [11]): 3.33 nM
B16: ALGA105X-ADC Trop-2 arm (antibody, V domains shown)
V domain 1: B10 VH with A74S, S76N, K86R, P87A, Q115L
V domain 2: B14 VH with E6Q, P88A, A89E
modifications: exatecan drug-linker conjugate; full fusion SEQ69

- Kd (human Trop-2 (His) [11]): 3.43 nM
- Kd (human Trop-2 (His) [5]): 3.43 nM
B17: ALGA105X Trop-2 arm (antibody, V domains shown)
V domain 1: B10 VH with A74S, S76N, K86R, P87A, Q115L
V domain 2: B14 VH with E6Q, P88A, A89E

- Kd (human Trop-2 (His) [11]): 2.88 nM
B18: ALGA105S-ADC Trop-2 arm (antibody, V domains shown)
V domain 1: B10 VH with A74S, S76N, K86R, P87A, Q115L
V domain 2: B14 VH with E6Q, P88A, A89E
modifications: exatecan drug-linker conjugate; full fusion SEQ67

- Kd (human Trop-2 (His) [11]): 2.75 nM
- Kd (human Trop-2 (His) [5]): 2.44 nM
B19: ALGA105S Trop-2 arm (antibody, V domains shown)
V domain 1: B10 VH with A74S, S76N, K86R, P87A, Q115L
V domain 2: B14 VH with E6Q, P88A, A89E

- EC50 [7]: 8.7 µg/mL
- Kd (human Trop-2 (His) [9]): 99.2 nM
B20: Trop-2-A-258hz3 (antibody, V domains shown)
VH: B14 VH with P88A, A89E, D108S, Y112F

- EC50 [7]: 0.227 µg/mL
- Kd (human Trop-2 (His) [9]): 74.7 nM
B21: Trop-2-A-258hz7 (antibody, V domains shown)
VH: B14 VH with P88A, A89E

- Kd (human Trop-2 (His) [6]): 59.2 nM
- EC50 [7]: 0.34 µg/mL
- EC50 (human Trop-2 (His) [8]): 0.00557 µg/mL
- Kd (human Trop-2 (His) [9]): 64.6 nM
B22: Trop-2-A-258 (antibody, V domains shown)
VH: B14 VH with P14A, S75A, R87K, A89E, Q115K

- Kd (human Trop-2 (His) [5]): 2.22 nM
B23: ALGA105O Trop-2 arm (antibody, V domains shown)
V domain 1: B10 VH with A74S, S76N, K86R, P87A, Q115L
V domain 2: B14 VH with P14A, S75A, R87K, A89E, Q115K

- EC50 [7]: 0.176 µg/mL
- Kd (human Trop-2 (His) [9]): 75.5 nM
B24: Trop-2-A-258hz2 (antibody, V domains shown)
VH: B14 VH with E6Q, P88A, A89E

- Kd (human Trop-2 (His) [6]): 5.21 nM
- EC50 (human Trop-2 (His) [8]): 0.0166 µg/mL
B25: Trop-2-B-16 (antibody, V domains shown)
VH: EVQVVESGGGLVQPGGSLRLSCTAPERIFSIYNMGWYRQAPGKEREWVAFLMEGGRIEYADSVKGRFTISRDNAKSTVYLQMNNLNAEDAAVYYCNAGGRSGYWGKGTLVTVSS

- Kd (human Trop-2 (His) [5]): 0.668 nM
B26: ALGA105N Trop-2 arm (antibody, V domains shown)
V domain 1: B10 VH with A74S, S76N, K86R, P87A, Q115L
V domain 2: B25 VH
